In assay [1] the target is N-CoRNID labelled with Atto647N (mouse) (UniProt Q60974). Briefly: MST.
In assay [2] the target is N-CoRNID, nuclear receptor interaction domain of N-CoR (Gln2059 to Glu2325) (mouse) (UniProt Q60974). The assay can be described thus: AUC + other: RPLC-UV/MS.
Assay [3] has as its target fluorescent peptide CoRNR1 of N-CoR. The assay can be described thus: fluorescence polarisation. (In general: In fluorescence polarisation assays a small probe gives low polarisation when free and higher when bound to something large.)
For assay [4], the target named is fluorescent peptide CoRNR2 of N-CoR. Briefly: fluorescence polarisation.
Assay [5] deals with N-CoRNID labelled with Atto647N (mouse) (UniProt Q60974). Briefly: MST. This is another data set of the same source.
For assay [6], the target named is N-CoRNID, nuclear receptor interaction domain of N-CoR (Gln2059 to Glu2325) (mouse) (UniProt Q60974). The assay can be described thus: SAXS.
Assay [7] addresses T1, RXR (RXRα ligand-binding domain) (mouse, UniProt P28700 227-467).
T1 sequence (looked up): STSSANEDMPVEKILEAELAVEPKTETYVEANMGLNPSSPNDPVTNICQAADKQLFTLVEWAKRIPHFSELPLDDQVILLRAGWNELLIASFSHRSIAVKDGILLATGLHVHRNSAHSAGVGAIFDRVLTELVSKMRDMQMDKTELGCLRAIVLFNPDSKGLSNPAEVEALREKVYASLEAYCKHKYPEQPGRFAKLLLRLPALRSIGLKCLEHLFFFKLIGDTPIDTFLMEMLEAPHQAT
Briefly: fluorescence polarisation.

For assay [8], the target named is T1, RXR (RXRα ligand-binding domain). Briefly: AUC + other: RPLC-UV/MS.

Like-named read-outs stand apart in the source and are kept apart here. Ends that are not written are not given here. fluorescein = fluorescein label at the N-terminus of the peptide

Chain of N-CoRNID labelled with Atto647N (mouse) (Q60974 2059-2325): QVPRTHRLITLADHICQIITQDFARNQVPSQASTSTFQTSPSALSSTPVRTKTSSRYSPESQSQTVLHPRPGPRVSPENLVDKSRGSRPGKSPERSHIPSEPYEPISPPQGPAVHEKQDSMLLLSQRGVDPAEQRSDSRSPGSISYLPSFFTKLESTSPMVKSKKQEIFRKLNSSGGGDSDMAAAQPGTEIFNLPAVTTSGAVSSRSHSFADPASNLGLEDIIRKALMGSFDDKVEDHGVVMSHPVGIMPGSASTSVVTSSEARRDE
Chain of N-CoRNID, nuclear receptor interaction domain of N-CoR (Gln2059 to Glu2325) (mouse) (Q60974 2059-2325): as above

The term Kd denotes the constant that tells how readily two partners part at equilibrium. High values mean weaker binding, low ones tighter binding. Usually stoichiometry N stands for a count of units in the complex or per binding partner. With “RXR/RAR heterodimer (mRXRα/hRARα), ligand-binding domains (from UniProt P28700 1-467; P10276 1-462) (complex)”, the dissociation constant Kd in assay [1] came out at 0.21 µM; in assay [3], 1.68 µM; in assay [4], 1.47 µM; in assay [5], 8.6 µM. Moreover, the stoichiometry N in assay [2] was 1. In assay [6], the population of unbound species stood at 51%.

“RXR/RARI396E heterodimer (mRXRα/hRARαI396E) (from UniProt P28700 1-467; P10276 1-462) (complex)” had a Kd in assay [1] of 4.42 µM.

In assay [7], fluorescein-DPASNLGLEDIIRKALMGSFD [fluorescent peptide CoRNR2 of N-CoR] showed a Kd of 22.5 µM.

B1: RAR (RARα ligand-binding domain) (domain or fragment, human, UniProt P10276 176-421, looked up)
chain: ESYTLTPEVGELIEKVRKAHQETFPALCQLGKYTTNNSSEQRVSLDIDLWDKFSELSTKCIIKTVEFAKQLPGFTTLTIADQITLLKAACLDILILRICTRYTPEQDTMTFSDGLTLNRTQMHNAGFGPLTDLVFAFANQLLPLEMDDAETGLLSAICLICGDRQDLEQPDRVDMLQEPLLEALKVYVRKRRPSRPHMFPKMLMKITDLRSISAKGAERVITLKMEIPGSMPPLIQEMLENSEGLD
As for B1, in assay [8], the “stoichiometry N” value worked out at 1.

The values above are taken from paper doi:10.1101/452482 (bioRxiv, 2018).
